The values below come from paper PMC7826273.

For series [1], the target named is T1, FmhB (Staphylococcus aureus, UniProt Q2FVZ4 1-421).
T1 sequence: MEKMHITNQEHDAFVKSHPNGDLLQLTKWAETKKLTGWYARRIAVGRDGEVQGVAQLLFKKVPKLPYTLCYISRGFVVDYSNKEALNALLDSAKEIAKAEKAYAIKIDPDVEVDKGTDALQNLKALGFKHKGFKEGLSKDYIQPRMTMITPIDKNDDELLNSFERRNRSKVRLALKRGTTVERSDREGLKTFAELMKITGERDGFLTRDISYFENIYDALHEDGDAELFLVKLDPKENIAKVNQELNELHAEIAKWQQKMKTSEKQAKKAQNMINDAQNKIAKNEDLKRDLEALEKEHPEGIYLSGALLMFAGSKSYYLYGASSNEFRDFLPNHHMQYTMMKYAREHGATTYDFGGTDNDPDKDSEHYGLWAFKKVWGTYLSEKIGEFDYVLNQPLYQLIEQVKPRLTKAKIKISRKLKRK
Put plainly: competition.

Series [2] addresses T1, FmhB. Nature of the series: competition. This is another data set of the same source.
In series [3] the target is T1, FmhB. Put plainly: competition. The source holds these as a separate data set.
Series [4] addresses T1, FmhB. Put plainly: competition. The source holds these as a separate data set.
In a further series the target is EF-Tu (GTP form) (UniProt P99152 1-394). Nature of the series: competition.
EF-Tu (GTP form), sequence (P99152 whole entry): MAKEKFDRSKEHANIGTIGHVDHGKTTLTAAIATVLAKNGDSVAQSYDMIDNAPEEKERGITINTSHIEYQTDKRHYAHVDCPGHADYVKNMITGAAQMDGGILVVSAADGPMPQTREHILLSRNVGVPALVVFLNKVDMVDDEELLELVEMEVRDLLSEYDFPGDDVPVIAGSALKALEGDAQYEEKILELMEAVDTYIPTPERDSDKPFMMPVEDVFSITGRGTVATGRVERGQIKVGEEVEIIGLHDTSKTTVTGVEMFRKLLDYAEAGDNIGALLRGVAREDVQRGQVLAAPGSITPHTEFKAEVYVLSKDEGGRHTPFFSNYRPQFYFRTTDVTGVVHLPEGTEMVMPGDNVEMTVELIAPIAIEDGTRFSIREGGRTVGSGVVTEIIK
Series [5] addresses T1, FmhB. Put plainly: size-exclusion chromatography.

Like-named read-outs stand apart in the source and are kept apart here.

B1: P1_1 analogue (P1 with NP2 region 1) (structured_RNA)
RNA: GCAGAAGUAGUUCAACUUUUAGAAUACAACCUUGCCAAGGUUGGGGUGCGGGUUCGAAUCCCGUCUUCUGCUCCA
modifications: stable triazole-nonadiyne analogue (2' isomer presumed)
In the case of B1, the binding signal in the series with FmhB [1] is 2 ± 0.3 fold reduction in Ki vs P1 analogue.

B2: NP2 stable Gly-tRNA analogue, 2' isomer (structured_RNA)
RNA: GCGGGAGUAGUUCAACUUUUAGAACACGUUCCUUCCCGGAACGAGGUAUAGGUGUAAAUCCUAUCUUCCGCUCCA
modifications: 2'-(1,4-triazole-alkyne; nonadiyne) on terminal A; penultimate C is dC (pdCpA ligation)
B2 registered an inhibitory constant (Ki) with FmhB [2] of 8.6 ± 2 nM.

B3: NP2 stable Gly-tRNA analogue, 3' isomer (structured_RNA)
RNA: GCGGGAGUAGUUCAACUUUUAGAACACGUUCCUUCCCGGAACGAGGUAUAGGUGUAAAUCCUAUCUUCCGCUCCA
modifications: 3'-(1,4-triazole-alkyne; nonadiyne) on terminal A; penultimate C is dC (pdCpA ligation)
Regarding B3, in the series with FmhB [3], the affinity, expressed as Ki, was 110 ± 6 nM.

B4: CHIM1 analogue (NP2 with P1 acceptor stem) (structured_RNA)
RNA: GCAGAAGUAGUUCAACUUUUAGAACACGUUCCUUCCCGGAACGAGGUAUAGGUGCAAAUCCUAUCUUCUGCUCCA
modifications: 2'-triazole-nonadiyne on terminal A; penultimate C is dC
Take B4: the Ki in the series with FmhB [4] was found to be 7.6 ± 0.7 nM.

B5: Gly-tRNAGly P1 (structured_RNA)
RNA: GCAGAAGUAGUUCAGCGGUAGAAUACAACCUUGCCAAGGUUGGGGUCGCGGGUUCGAAUCCCGUCUUCUGCUCCA
modifications: 3'-glycyl ester
With B5, in the series with EF-Tu (GTP form), the binding signal was 14 ± 3 % residual FmhB activity at 4 uM EF-Tu.

B6: CHIM2 analogue (P1 with NP2 acceptor stem) (structured_RNA)
RNA: GCGGGAGUAGUUCAGCGGUAGAAUACAACCUUGCCAAGGUUGGGGUCGCGGGUUCGAAUCCCGUCUUCCGCUCCA
modifications: 2'-triazole-nonadiyne on terminal A; penultimate C is dC
As for B6, the inhibitory constant (Ki) with FmhB [4] worked out at 1000 ± 160 nM.

B7: tRNAGly P1 (GCC-1), unacylated (structured_RNA)
RNA: GCAGAAGUAGUUCAGCGGUAGAAUACAACCUUGCCAAGGUUGGGGUCGCGGGUUCGAAUCCCGUCUUCUGCUCCA
On to B7, for which the binding result with FmhB [5] is recorded as “no binding”.

B8: P1 stable Gly-tRNA analogue, 2' isomer (structured_RNA)
RNA: GCAGAAGUAGUUCAGCGGUAGAAUACAACCUUGCCAAGGUUGGGGUCGCGGGUUCGAAUCCCGUCUUCUGCUCCA
modifications: 2'-(1,4-triazole-alkyne; nonadiyne) on terminal A; penultimate C is dC (pdCpA ligation)
For B8, the inhibition constant (Ki) with FmhB [3] is 320 ± 10 nM.

B9: CHIM3 analogue (NP2 with P1 anticodon stem-loop) (structured_RNA)
RNA: GCGGGAGUAGUUCAACUUUUAGAACACAACCUUGCCAAGGUUGAGGUAUAGGUGUAAAUCCUAUCUUCCGCUCCA
modifications: 2'-triazole-nonadiyne on terminal A; penultimate C is dC
For the molecule B9, the Ki with FmhB [4] turned out to be 5.4 ± 0.3 nM.

B10: CHIM5 analogue (NP2 with P1 anticodon stem-loop and acceptor stem) (structured_RNA)
RNA: GCAGAAGUAGUUCAACUUUUAGAACACAACCUUGCCAAGGUUGAGGUAUAGGUGUAAAUCCUAUCUUCUGCUCCA
modifications: 2'-triazole-nonadiyne on terminal A; penultimate C is dC
In the series with FmhB [4], B10 gave a Ki of 19 ± 2 nM.

B11: CHIM4 analogue (P1 with NP2 anticodon stem-loop) (structured_RNA)
RNA: GCAGAAGUAGUUCAGCGGUAGAAUACGUUCCUUCCCGGAACGGGGUCGCGGGUUCGAAUCCCGUCUUCUGCUCCA
modifications: 2'-triazole-nonadiyne on terminal A; penultimate C is dC
In the series with FmhB [4], B11 yielded an inhibitory constant (Ki) of 220 ± 40 nM.
